Tests used:
[1] = target: T1, Peptide 2, amino acid residues 118-135 of SEQ ID NO:10 (human); assay: ELISA, hybridoma culture supernatant
T1 construct: Immunisation peptide from the ECD of human LSR
T1 peptide: CQDSVRTVRVVATKQGNA
Method: FACS analysis was subsequently carried out with purified monoclonal Ab, 8C8, using a goat anti mouse-Alexa Fluor 488 (Invitrogen cat# A10667) as secondary Ab for detection.
Culture supernatants of the hybridoma clones were analyzed by ELISA.

[2] = target: T2, mouse WT LSR protein expressed in stably transfected HEK293 or CHO-K1 cells (mouse, UniProt Q99KG5 36-594); assay: flow cytometry on stably transfected CHO-K1 cells, 8C8 at 1, 2.5, 5 and 10 ug/ml, Geo Mean (FL1)
T2 construct: Made with a C-terminal Flag tag (pcDNA3.1); Lysate for the Western blot; also called WT-Mouse LSR-flag protein
T2 sequence: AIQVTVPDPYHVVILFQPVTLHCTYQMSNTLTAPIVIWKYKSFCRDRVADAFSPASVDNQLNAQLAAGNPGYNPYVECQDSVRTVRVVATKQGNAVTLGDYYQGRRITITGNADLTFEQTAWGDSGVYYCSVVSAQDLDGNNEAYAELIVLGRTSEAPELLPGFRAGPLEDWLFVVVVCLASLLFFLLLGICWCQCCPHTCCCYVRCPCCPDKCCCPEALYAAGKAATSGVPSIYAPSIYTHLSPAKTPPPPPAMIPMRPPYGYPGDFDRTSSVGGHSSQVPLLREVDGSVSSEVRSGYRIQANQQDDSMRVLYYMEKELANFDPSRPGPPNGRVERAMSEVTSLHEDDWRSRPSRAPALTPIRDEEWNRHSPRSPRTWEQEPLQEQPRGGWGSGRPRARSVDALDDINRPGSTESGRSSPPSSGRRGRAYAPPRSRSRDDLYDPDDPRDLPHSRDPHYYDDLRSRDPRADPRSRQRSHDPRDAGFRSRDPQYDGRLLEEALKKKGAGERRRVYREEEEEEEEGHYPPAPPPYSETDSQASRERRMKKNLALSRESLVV

B1: 8C8, mouse IgG2a monoclonal antibody against human LSR (antibody, V domains shown)
VH: DVKLVESGGGLVKLGGSLKLSCAASGFTFSSYYMSWVRQTPEKRLELVAAINSNGGSTYYPDTVKGRFTISRDNAKNTLYLQMSSLKSEDTALYYCARHDYYGSSFAMDYWGQGTSVTVSS
VL: DIQMTQTTSSLSASLGDRVTISCRASQDISNYLNWYQQKPDGTVKLLIYYTSRLHSGVPSRFSGSGSGTDYSLTISNLEQEDIATYFCQQDSKHPWTFGGGTKLEIK
notes: also called 8C8 mAb; mAb 8C8
Does B1 bind [1]?
Result: no binding

Does B1 bind [2]?
Result: binds
